Source: PMC6275156

Biological target: BB2
Test: SEC-MALS

BB2 showed a stoichiometry N of 4.
